From the nanobody polyreactivity screen of Harvey et al. (2022)

Experiment: yeast display, Sf9 membrane polyspecificity reagent, FACS + sequencing; frameworks hold sequencing errors
Summary of the method: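 After 36–48 hours of galactose induction, yeast (Saccharomyces cerevisiae BJ5465) displaying a synthetic nanobody library were stained at 4 °C for 1 hour with 10% biotinylated, detergent-solubilized Sf9 membrane reagent. Streptavidin microbeads enriched the stained cells before FACS sorting into low and high (top ~1%) gates on anti-HA and streptavidin fluorescence. Each clone's polyreactivity label reflects its gate of origin.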

## QVQLVESGGGLVQAGGSLRLSCAASGLIFASYAMGWYRQAPGKERELVATITVGGSTYYADSVKGRFTISRDNPKNTVYLQMISLKPEDTAVYYCNVGESVPWYEWGALWFSFDYWGQGTQVSVSS
  polyreactivity (PSR sort gate): high polyreactivity

## QVQLVESGGGLVQAGGSLRLSCAASGFTLLGNTMGWYRQAPGKERELVAAIRTNSGRTYYADSVKGRFTISRDNAKNTVYLQMNSLKPEDTAVYYCAKRYFSYLGREMDYWGQGTQVTVSS
  polyreactivity (PSR sort gate): high polyreactivity

## QVQLVESGGGLVQAGGSLRLSCAASGRTFNVYAMGWYRQAPGKERELVAAISIGGRTNYADSVKGRFTISRDNAKNTVYLQMNSLKPEDTAVYYCAADTRRKYGGMYYWGQGTQVTVSS
  polyreactivity (PSR sort gate): high polyreactivity

## QVQLVESGGGLVQAGRSLRLSCAASGSTFKVYAMGWYRQAPGKERELVAAISASDGSTYYPDSVKGRFTISRDNAKKTVYVQMYRLKPEDTAVYYFAAVLYSDKATYDYWGQGTQVTVSS
  polyreactivity (PSR sort gate): low polyreactivity

## QVQLVESGGGLVQAGGSLRLSCAAPGIIFVDYTMGWYRQAPGKERELVAAIDWSGGSTYYADSVKGRFTISRDNAKNTVYLQMNSLKPEDTAVYYCAALKTTYIYSSDFDYWGQGTQVTVSS
  polyreactivity (PSR sort gate): low polyreactivity

## QVQLVESGGGLDQAGGSLRLSCAASGSIFLRYAMGWYRQAPGKERELVAAITTGGGSTYYADSVKGRFTISRDNAKNTVYLQMNSLKPEDTAVYYCAKRAQYHWRGRDDYSYYYWGQGTQVTVSS
  polyreactivity (PSR sort gate): low polyreactivity

## QVQLVESGGGLVQAGGSLRLSCAASGSARYAMGWYRQAPGKERELVAAISRRGGSTFYADSVKGRFTISRDNAKNTVYLQMHSLKPEDTAVYYCAADGRISYDYWGQGTQVTVSS
  polyreactivity (PSR sort gate): low polyreactivity

## QVQLVESGGGLVQAGGSLRLSCAASGFTFDYYAMGWYRQAPGKERELVATINGASSTNYADSVKGRFTISRDNAKNTVYLQMNSLKPEDTAVYYCNARYYGPDFVLAYDYWGQGTQVTESS
  polyreactivity (PSR sort gate): low polyreactivity

## QVQLVESGGGLVQAGGSLRLSCAASGGTFVGYTMGWYRQAPGKERELVAGIRTRSGSTSYADSVKGRFTISRDNAKNTVYLQMNSLKPEDTAVYYCAARPYGRYPYPEYYYWGQGTQVTVSS
  polyreactivity (PSR sort gate): high polyreactivity

## QVQLVESGGGLVQAGGSLRLSCAASGITFYVYTMGWYRQAPGKERELVAAINGSGGSTNYADSVKGRFTISRDNAKNTVYLLMNSLKPEDTAVYYCAADWSLRLYDYWGQGTQVTVSS
  polyreactivity (PSR sort gate): low polyreactivity

## QVQLVESGGGLVQAGGSLRLSAASGSTLAGNTMGWYRQAPGKERELVAAINDSGGSTYYADSVKGRFTISRDNAKNTVYLQMNSLKPEDTAVYYCNAEGSAYIEDGYDYWGQGTQVTVSS
  polyreactivity (PSR sort gate): low polyreactivity

## QVQLVESGGGLVQAGGSLRLSCAASVRIFYGYTMGWYRQAPGKERELVASIDYSTGRTYYADSVKGRFTISRDNAKNTVYLLMNSLKPEDTAVYYCNADPNYSFLRYDYWGQGTQVTVSS
  polyreactivity (PSR sort gate): high polyreactivity

## QVQLVESGGGLVQAGGSLRLSCAASGRTFSTNAMGWYRQAPGKERELVAAITASGGSTYYADSVKGRFTISRDNAKNTVYLQMNSLKPEDTAVYYCAKRYRAYHYGWWYDYWGQGTQVTVSS
  polyreactivity (PSR sort gate): high polyreactivity

## QVQLVESGGGFVQAGGSLRLSCAASGRTFNGYAMGWYTQAPGKERELVAGISWRGTSTYYSDSVKGRFTISRDNAKNTVYLQLNSLKPEDTAVYYCAASRYLLYDYWGQGTQVTVSS
  polyreactivity (PSR sort gate): high polyreactivity

## QVQLVESGGGLVQAGGSLRLSCAASGRTFVYTMGWYRQAPGKERELVAAIRYSGGRTYYADSVKGRFTISRDNAQNTVYLQMNSLKPEDTAVYYCAARNYATGVRYDYWGQVTQVTVSS
  polyreactivity (PSR sort gate): high polyreactivity

## QVQLVESGGGLVQAGGSLRLSCAASGLIFSGYAMGWYRQAPGKERELVAAISRGGGRTSYADSVKGRFTISRDNAKNTVYLQMNSLKPEDTAVYYCAKDPRYLRYEHWGQGSQVTVSS
  polyreactivity (PSR sort gate): high polyreactivity

## QVQLVESGGGLVQAGGSLRLSCAASGSIFSPYAMGWYRQAPGKARELVAVITRSGGRTYYADSVKGRFTISRDNAKNTVYLQMNSLKPEDTAVYYCAATPKSWSSSTRDYWGQGTQVTVSS
  polyreactivity (PSR sort gate): high polyreactivity

## QVQLVESGVGLVQAGGSHRLSSGASGSIFSSYAMGWYRQEPVKERELVADISQSGGDTYYADSVQGRFTISRDNANNTVYLQRNSLKPEDNAVYYCAASVWYYPMDYWGKGTQVTVSS
  polyreactivity (PSR sort gate): low polyreactivity

## QVQLVESGGGLVQAGGSLRLSCAAAGRISVFYTMGWYRQAPGKERVLVAVIRTSGGRTNYADSVKGRFTISRDNAKNTVYLQMNSLKPEDTAVYYWDADAVIEWTEWYSAWWYYYWGQGTQVTVSS
  polyreactivity (PSR sort gate): low polyreactivity

## QVQLVESGGGLVQAGGSLRLSCAASGSIFESYAMGWYRQAPGKERELVADITYDGGITYYADSVKGRFTISRDNAKNTVYLQMNSLKPEDTADYYCNADSVQYTPPESDYWGQGTQVTVSS
  polyreactivity (PSR sort gate): low polyreactivity

## QVQLVESGGGLVQAGGSLRLSCAASGSTFYSYAMGWYRQAPGKERELVAAITKGGGSTYYADSVKGRFTISRDNAKNTVYLQMNSLIPEDTAVYYCAAPGLYWYYTRSVYDYWGQGTQVTVSS
  polyreactivity (PSR sort gate): high polyreactivity

## QVQLVESGGGLVQAGGSLRLICAASGSIFAYNAMGWYRQAPGKERELVAAITDSAGSTYYADSVKGRFTISRDNAKNTVYLQMYSLKPEDTAVYYGAKYTTRGVYRYWPKDMDYWGQGTQVTVSS
  polyreactivity (PSR sort gate): low polyreactivity

## QVQLVESGGGLVQAGGSLRLSCAASGSTFYDYAMGWYRQAPGKERVLVAAISTSGGSTYADSVYGRFTISRDNAKNTVYLQMNSLKPEDTAVYYCNADDPGYAVPWYWFKYDYWGQGTQVTVSS
  polyreactivity (PSR sort gate): low polyreactivity

## QVQLVESGGGLVQAGGSLRLSCAASGFTFISYAMGWYSQAPGQERELVAAISSTGGSTYYADSVKGRFTSSRDTAKKTVYLQMNSLKPEETAVYYCNAVYWYTSEYDYWGQGTQVTVSS
  polyreactivity (PSR sort gate): high polyreactivity

## QVQHVESGGGLVQAGGSLRLRCAASGSIFYRYVMGWYRQAHGKERELVAAISVSGGTTYYADSVKGRITISRDNAKNTVYLQMNRLKPEDTAVYYCAAEDSLTEDPAHDYWGQGTQVTVSS
  polyreactivity (PSR sort gate): low polyreactivity

## QVQLVESGGGLVQAGGSLRLSCAASGRTFEVYAMGLYRQAPGKERELVATITYSGGITYYADSVKGRFTISRDNAKNTVYLQMNSLKPEDTAVYYPIGVRGDYDYWGQGTQVTVSS
  polyreactivity (PSR sort gate): low polyreactivity

## QVQLVESGGGLVQAGGSLRLSCAASGRTFTYYTMGWYRQAPGKERELVAAITWSGGRTYYADSVKGRFTISRDNAKYTVYLQMNSLKPEDTAVYYCAKPPQGTYDYWGQGTQVTVSS
  polyreactivity (PSR sort gate): low polyreactivity

## QVQLVESRGGLVQAGGTLRLSCAPSGLTSYGNTRGWDIPAPGKERELVAAISKRGTSTYYADSVKGRFTISRDNAMNTVYLQMNSLKPEDTAVYYCAAAYRGREVEYISWGQGTQVTVSS
  polyreactivity (PSR sort gate): high polyreactivity

## QEQLQESGGGQVQAGGSLLLSCAASGNIIRYYYMGWYRQAPGKERELVAAITYGTSTNYADSVKGRFTIRRDNAKNTVYLQMNSLKPEDTAVYYCAVDVNYGDPLDNWGQGTQVTVSS
  polyreactivity (PSR sort gate): high polyreactivity

## QVQLVESGGGLVQAGGSLRLSCAASGNTFVRNAMGWYRQAPGKERELVAAMSSRGTSTYYADSVKGRFTISRDNAKNTVYLQMNSLKPEDTAVYYCAAYQYPADFKLYYYWGQGTQVTVSS
  polyreactivity (PSR sort gate): high polyreactivity

## QVQLVESGGGLVQAGGSLRLSCAASGSIFYRNTMGWYRQAPGKERELVAGITGNGGRTYYADSVKGRFTISRDNAKNTVYLQMNSQKPEDTAVYYCAAGTWTWYRYYYWGQGTQVTVSS
  polyreactivity (PSR sort gate): high polyreactivity

## QVQLVESGGGLVQAGGSLRLSCAASGFTFGVYAMGWYRQAPGKERELVAAITATGGSTYYADSVKGRFTISRDNAKNTVYLQMNSLKPADTEVYYCAKPDYYRMGYWVQGTQVTVSS
  polyreactivity (PSR sort gate): low polyreactivity
